2 molecules from article PMC7393355, “A FRET-based screening method to detect potential inhibitors of the binding of CNNM3 to PRL2” (Scientific Reports, 2020) can be followed below.

Assay [1] concerns the target T1, non-fluorescence protein-tagged PRL2 (human, UniProt Q12974-1 1-167).
T1 construct: human PRL2, NP_001356788.1, residues 1-167; Subcloned into pET28a; the limits 1-167 are printed for human PRL2 in the same paragraph; also called non-CyPet-tagged PRL2; source: E. coli Rosetta (DE3), purified (Ni-NTA, SEC)
T1 sequence (looked up): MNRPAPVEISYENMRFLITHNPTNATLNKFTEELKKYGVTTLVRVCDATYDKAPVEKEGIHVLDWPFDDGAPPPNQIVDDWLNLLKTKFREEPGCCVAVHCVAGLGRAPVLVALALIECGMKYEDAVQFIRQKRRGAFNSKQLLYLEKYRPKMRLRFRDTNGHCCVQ
The assay can be described thus: ITC; cell 20 uM PRL2, syringe 200 uM CNNM3 CBS protein, 25 C, 20 mM Tris-HCl pH 7.0, 50 mM NaCl, 1 mM TCEP. As to conditions: both partners purified.

In assay [2] the target is T2, PRL2 (residues 1-167) with CyPet at its N-terminus (human, UniProt Q12974-1 1-167).
T2 construct: human PRL2 (phosphatase of regenerating liver 2), NP_001356788.1, residues 1-167; GS linker between CyPet and PRL2; pET22c derivative; Methods and discussion sometimes call it YPet-PRL2; also called CyPet-PRL2; CyPet-PRL2 WT; source: E. coli Rosetta (DE3), purified (Ni-NTA, SEC); not shown: CyPet (monomeric mutation A206K), N-terminal, kept
T2 sequence (looked up): T1 sequence (looked up)
Nature of the assay: FRET or BRET; 30 nM CyPet-PRL2 mixed with serial dilutions of CNNM3 CBS-YPet (0-300 nM) in 96-well plates, TBS (50 mM Tris-HCl pH 8.0, 150 mM NaCl), R.T. 1 h, excitation 435 nm, emission 530 nm. As to conditions: both partners purified. A general note: In BRET a luciferase serves as donor, and the signal depends on an acceptor being close.

B1: non-YPet-tagged CNNM3 CBS domain (domain or fragment, human, UniProt Q8NE01 301-452, looked up)
chain: YSDLSKGVLRCRTVEDVLTPLEDCFMLDASTVLDFGVLASIMQSGHTRIPVYEEERSNIVDMLYLKDLAFVDPEDCTPLSTITRFYNHPLHFVFNDTKLDAVLEEFKRGKSHLAIVQKVNNEGEGDPFYEVLGLVTLEDVIEEIIRSEILDE
notes: CBS domain of human CNNM3, XP_011509259.1, residues 301-452; Subcloned into pET28a; the limits 301-452 are printed for the CBS domain in the same paragraph; also called non-fluorescence-tagged CNNM3; CNNM3 CBS protein; source: E. coli Rosetta (DE3), purified (Ni-NTA, anion exchange)
With B1, the affinity in assay [1], expressed as Kd, was 15.2 ± 5 nM.

B2: CNNM3 CBS domain (residues 301-452) with YPet at its C-terminus (domain or fragment, human, UniProt Q8NE01 301-452, looked up)
chain: B1 chain
notes: CBS domain of human CNNM3 (cyclin M3), XP_011509259.1, residues 301-452; GS linker between the CBS domain and YPet; pET22c derivative; Methods and discussion sometimes call it CNNM3 CBS-CyPet; also called CNNM3-YPet; CNNM3 CBS-YPet; source: E. coli Rosetta (DE3), purified (Ni-NTA, anion exchange); not shown: YPet, C-terminal, kept
As for B2, the Kd (usually the concentration at which binding is half-saturated) in assay [2] stood at 108 ± 16 nM.
